T1: SKN-1 peptides (UniProt P34707)
T1 sequence: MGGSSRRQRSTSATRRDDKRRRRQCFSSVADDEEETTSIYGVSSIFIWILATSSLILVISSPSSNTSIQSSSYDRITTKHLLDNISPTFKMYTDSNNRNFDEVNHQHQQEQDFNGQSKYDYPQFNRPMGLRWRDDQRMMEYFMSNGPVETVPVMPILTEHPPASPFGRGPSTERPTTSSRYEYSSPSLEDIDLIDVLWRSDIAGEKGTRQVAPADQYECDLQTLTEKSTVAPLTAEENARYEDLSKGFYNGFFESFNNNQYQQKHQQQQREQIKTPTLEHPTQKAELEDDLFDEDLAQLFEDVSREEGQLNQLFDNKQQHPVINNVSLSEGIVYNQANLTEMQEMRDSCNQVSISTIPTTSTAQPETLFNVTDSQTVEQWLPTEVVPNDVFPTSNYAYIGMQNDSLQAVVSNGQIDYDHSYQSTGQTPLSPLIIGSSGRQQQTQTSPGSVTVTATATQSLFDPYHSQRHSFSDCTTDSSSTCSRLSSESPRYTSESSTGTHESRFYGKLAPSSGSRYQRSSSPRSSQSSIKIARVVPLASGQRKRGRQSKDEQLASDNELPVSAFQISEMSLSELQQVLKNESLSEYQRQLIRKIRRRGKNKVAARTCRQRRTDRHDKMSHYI

T2: SKN-1 DNA binding domain (SKN domain, 85 aa) (Caenorhabditis elegans, UniProt P34707 SEQ:1-85)
T2 sequence: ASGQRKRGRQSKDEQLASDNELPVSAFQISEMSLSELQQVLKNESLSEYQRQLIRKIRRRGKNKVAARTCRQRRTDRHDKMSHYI

T3: SKN-1 full-length (Caenorhabditis elegans, UniProt P34707 SEQ:1-533)
T3 sequence: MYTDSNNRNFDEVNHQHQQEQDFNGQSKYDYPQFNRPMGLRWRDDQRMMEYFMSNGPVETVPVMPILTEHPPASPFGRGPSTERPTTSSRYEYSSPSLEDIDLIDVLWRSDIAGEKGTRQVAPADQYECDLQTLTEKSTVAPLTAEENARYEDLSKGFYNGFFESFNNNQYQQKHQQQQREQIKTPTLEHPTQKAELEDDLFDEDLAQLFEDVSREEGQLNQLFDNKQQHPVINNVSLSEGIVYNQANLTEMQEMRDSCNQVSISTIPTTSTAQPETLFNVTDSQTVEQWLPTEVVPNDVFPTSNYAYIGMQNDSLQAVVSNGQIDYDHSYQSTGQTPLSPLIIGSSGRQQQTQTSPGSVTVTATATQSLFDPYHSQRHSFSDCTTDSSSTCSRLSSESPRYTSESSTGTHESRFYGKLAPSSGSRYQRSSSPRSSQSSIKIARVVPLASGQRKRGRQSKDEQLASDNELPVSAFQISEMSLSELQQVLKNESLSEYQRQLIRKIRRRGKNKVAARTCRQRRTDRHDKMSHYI


Tests used:
SKN-1 peptides = target: T1, SKN-1 peptides
[1] = target: T2, SKN-1 DNA binding domain (SKN domain, …); test: EMSA; no binding to mutant probe; as unlabeled competitor much less effective than wild type; settings: label: 32P
Protocol: (§1) FIGS. 4A and 4B: Specific binding of SKN-1 to an essential gcs-1 promoter sequence. 4A: Binding of full-length SKN-1 to site 3 within the gcs-1 composite element, assayed by EMSA. Lanes 2-5 show binding of increasing amounts of in vitro translated SKN-1 protein (0 μl, 0.25 μl, 0.5 μl, 3 μl translation lysate; indicated by a triangle) to the wild type site. […] A background species is labeled. Lanes 6-10 show the same assay performed with the mutant probe. In lanes 11-20, SKN-1-DNA binding is assayed in the presence of the indicated unlabelled competitor oligonucleotides. Lanes 12-15 and 17-20 correspond to addition of a 20-, 50-, 150-, and 400-fold molar excess of competitor over the labeled wild-type DNA. 4B: The in vitro translated SKN-1 DNA binding domain (FIG. 1B) binds specifically to the gcs-1 composite element. Binding was assayed as in 4A.
(§2) Remarkably, SKN-1 binding site 3 is located within a 42 bp gcs-1 promoter element that is similar to a composite motif through which SKN-1 activates med-1 and med-2 in the embryo (FIGS. 1A and 3C) (Maduro et al. Mol. Cell 7: 475-485 (2001)). The conservation between these gcs-1 and med promoter elements is particularly striking because they are located at identical distances from their respective translation starts, but contain different numbers of SKN-1 sites (FIG. 3C). […]

SKN-1 full-length = target: T3, SKN-1 full-length; test: as above; settings: label: 32P
Protocol: as §1, §2

Molecule | phosphorylation of SKN-1 by GSK-3 (SKN-1 peptides) | phosphorylation of SKN-1 peptides by GSK-3 (SKN-1 peptides) | binding result [1] | binding result (SKN-1 full-length)
GSK-3 | GSK-3 then phosphorylates SKN-1 sequentially in the amino-terminal direction | Phosphorylation by GSK-3 required priming phosphorylation at a serine or threonine residue located four positions carboxyl-terminal to the GSK-3 site |  | 
gcs-1 composite element, site 3 mutant (dsDNA) DNA 1: ACTTTCTGCAGATGAGATTTAATGTTTCCTTTTGATTTTCT DNA 2: AGAAAATCAAAAGGAAACATTAAATCTCATCTGCAGAAAGT |  |  | no binding | no binding

— patent publication US20080141385, “Skn-1 and Gsk-3 Genes and Proteins” (published 2008)
